The target of this test is Bcl-xL∆L∆CT (C-terminal and loop-truncated Bcl-xL). Nature of the test: SAXS; purified OM-induced Bcl-xL dimer, 1 mg/ml and 3 mg/ml, 15 °C; mass from forward scattering against lysozyme.

The term stoichiometry N denotes a count of units in the complex or per binding partner.

“Bcl-xL∆L∆CT (C-terminal and loop-truncated Bcl-xL) (domain or fragment)” had a stoichiometry N of 2.

These data come from paper PMC4448555.
